In patent publication US20080300163A1:
Each block holds one substance with its values, some of them ahead of it.

Assays:
[1] = target: T1, full length rat GHR (L43R) on BAF3 cells (clone 2E2-2B12-F4) (rat) (UniProt P16310); test: cell-based or functional assay
T1 sequence (looked up): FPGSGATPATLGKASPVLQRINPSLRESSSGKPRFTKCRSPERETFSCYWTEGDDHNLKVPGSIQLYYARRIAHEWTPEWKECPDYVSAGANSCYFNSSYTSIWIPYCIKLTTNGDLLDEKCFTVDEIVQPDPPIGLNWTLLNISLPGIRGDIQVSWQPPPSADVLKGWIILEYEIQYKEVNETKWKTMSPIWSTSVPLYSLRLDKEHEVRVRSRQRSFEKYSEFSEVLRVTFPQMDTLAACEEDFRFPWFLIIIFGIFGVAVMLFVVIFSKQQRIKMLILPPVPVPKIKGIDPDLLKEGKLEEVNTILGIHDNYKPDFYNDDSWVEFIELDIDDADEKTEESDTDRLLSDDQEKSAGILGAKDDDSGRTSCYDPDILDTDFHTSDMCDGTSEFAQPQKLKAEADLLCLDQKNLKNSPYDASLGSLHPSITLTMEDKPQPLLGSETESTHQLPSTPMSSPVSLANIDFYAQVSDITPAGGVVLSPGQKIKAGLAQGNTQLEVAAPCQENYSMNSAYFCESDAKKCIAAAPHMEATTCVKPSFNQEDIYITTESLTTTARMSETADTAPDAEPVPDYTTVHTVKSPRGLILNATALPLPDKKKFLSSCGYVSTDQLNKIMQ

[2] = target: human growth hormone receptor on IM-9 cells (human) (UniProt P10912); test: cell-based or functional assay
Sequence of UniProt P10912 (P10912 19-638): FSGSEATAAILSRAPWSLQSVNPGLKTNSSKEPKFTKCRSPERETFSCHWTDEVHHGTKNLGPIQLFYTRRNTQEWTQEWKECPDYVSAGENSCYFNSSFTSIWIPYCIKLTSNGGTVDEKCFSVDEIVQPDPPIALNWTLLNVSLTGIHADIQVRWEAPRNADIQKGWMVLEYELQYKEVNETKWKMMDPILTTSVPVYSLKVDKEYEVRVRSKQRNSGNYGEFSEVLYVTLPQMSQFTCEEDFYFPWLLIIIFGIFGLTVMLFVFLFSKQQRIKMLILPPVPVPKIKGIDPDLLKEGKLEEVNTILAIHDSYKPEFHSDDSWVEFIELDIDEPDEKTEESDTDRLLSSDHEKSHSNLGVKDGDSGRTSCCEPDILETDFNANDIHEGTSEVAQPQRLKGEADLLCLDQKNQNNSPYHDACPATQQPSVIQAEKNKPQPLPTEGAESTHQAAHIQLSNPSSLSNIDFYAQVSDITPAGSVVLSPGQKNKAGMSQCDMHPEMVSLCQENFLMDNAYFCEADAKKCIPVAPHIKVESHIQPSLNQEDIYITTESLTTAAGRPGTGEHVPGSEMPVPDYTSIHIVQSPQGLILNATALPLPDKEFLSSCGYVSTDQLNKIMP

Substance: K145pAF-30KPEG hGH (from UniProt P01241 27-217) (ligand)
- Proliferation EC50 [1]: 5.3 nM
- pSTAT5 EC50 (nM) [2]: 20.6 nM

Substance: Y35pAF-40KPEG hGH (from UniProt P01241 27-217) (ligand)
- Proliferation EC50 [1]: 24 nM
- pSTAT5 EC50 (nM) [2]: 53.3 nM

Substance: Y143pAF-30KPEG hGH (from UniProt P01241 27-217) (ligand)
- Proliferation EC50 [1]: 6.6 nM
- pSTAT5 EC50 (nM) [2]: 12.3 nM

The remaining lines, values ahead:

- Proliferation EC50 [1]: 4.6 nM
- pSTAT5 EC50 (nM) [2]: 23.8 nM
Substance: G131pAF-30KPEG hGH (from UniProt P01241 27-217) (ligand)

- pSTAT5 EC50 (nM) [2]: 5.3 nM
Substance: R134pAF-20KPEG hGH (from UniProt P01241 27-217) (ligand)
